{"source": "patent US20070021348", "proteins": {"B1": {"name": "Asp 2 (transiently expressed from pcDNA3.1aMycHis) (protein)", "chain": "ETDEEPEEPGRRGSFVEMVDNLRGKSGQGYYVEMTVGSPPQTLNILVDTGSSNFAVGAAPHPFLHRYYQRQLSSTYRDLRKGVYVPYTQGKWEGELGTDLVSIPHGPNVTVRANIAAITESDKFFINGSNWEGILGLAYAEIARPDDSLEPFFDSLVKQTHVPNLFSLQLCGAGFPLNQSEVLASVGGSMIIGGIDHSLYTGSLWYTPIRREWYYEVIIVRVEINGQDLKMDCKEYNYDKSIVDSGTTNLRLPKKVFEAAVKSIKAASSTEKFPDGFWLGEQLVCWQAGTTPWNIFPVISLYLMGEVTNQSFRITILPQQYLRPVEDVATSQDDCYKFAISQSSTGTVMGAVIMEGFYVVFDRARKRIGFAVSACHVHDEFRTAAVEGPFVTLDMEDCGYNIPQTDESTLMTIAYVMAAICALFMLPLCLMVCQWRCLRCLRQQHDDFADDISLLK"}, "B2": {"name": "Asp 2 active site mutant D93N (protein)", "chain": "B1 chain with D48N"}, "B3": {"name": "Asp 2 active site mutant D289N (protein)", "chain": "B1 chain with D244N"}}, "molecular_target": "human APP isoform 695 (in SH-SY5Y APP695 cells), P05067", "sequence (P05067 whole entry, looked up, canonical isoform)": "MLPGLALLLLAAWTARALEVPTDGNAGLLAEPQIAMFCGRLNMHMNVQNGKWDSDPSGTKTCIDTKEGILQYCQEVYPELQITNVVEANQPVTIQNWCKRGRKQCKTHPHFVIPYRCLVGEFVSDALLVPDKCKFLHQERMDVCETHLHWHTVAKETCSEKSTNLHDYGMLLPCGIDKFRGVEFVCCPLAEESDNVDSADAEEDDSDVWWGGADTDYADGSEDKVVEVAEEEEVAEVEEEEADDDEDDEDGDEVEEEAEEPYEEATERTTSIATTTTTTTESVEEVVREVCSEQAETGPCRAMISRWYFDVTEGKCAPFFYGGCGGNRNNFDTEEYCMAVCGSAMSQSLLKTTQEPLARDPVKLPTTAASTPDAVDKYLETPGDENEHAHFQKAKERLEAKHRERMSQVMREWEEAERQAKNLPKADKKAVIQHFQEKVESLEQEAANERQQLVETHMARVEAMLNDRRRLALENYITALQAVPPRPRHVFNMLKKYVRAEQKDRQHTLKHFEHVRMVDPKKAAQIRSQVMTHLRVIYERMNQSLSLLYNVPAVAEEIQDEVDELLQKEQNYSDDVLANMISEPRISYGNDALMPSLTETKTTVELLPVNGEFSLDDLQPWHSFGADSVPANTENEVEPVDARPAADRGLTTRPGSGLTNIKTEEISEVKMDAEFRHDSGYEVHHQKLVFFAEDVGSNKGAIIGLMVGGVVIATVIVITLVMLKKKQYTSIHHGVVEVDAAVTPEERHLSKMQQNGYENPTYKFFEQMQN", "note": "Numbering of substitutions follows the chain as printed. Numbers in names are those of the source."}
{"protein": "B1", "values": [{"measurement": "sAPPβ (110 kDa) in media, Western blot", "result": "An increase in sAPPβ (110 kDa) was observed in the media from Asp 2 transfected cells compared to empty vector pcDNA3.1MycHis transfected control cells"}]}
{"protein": "B2", "values": [{"measurement": "sAPPβ in media, Western blot", "result": "There was no increase in sAPPβ secreted from cells transfected with either of the Asp-Asn mutants D93N or D289N"}]}
{"protein": "B3", "values": [{"measurement": "sAPPβ in media, Western blot", "result": "There was no increase in sAPPβ secreted from cells transfected with either of the Asp-Asn mutants D93N or D289N"}]}
